Results on 34 molecules are retold here after PMC12416549 (2024).

To fix the notation:
T1: TNFR1 (Homo sapiens, UniProt P19438)
T1 chain: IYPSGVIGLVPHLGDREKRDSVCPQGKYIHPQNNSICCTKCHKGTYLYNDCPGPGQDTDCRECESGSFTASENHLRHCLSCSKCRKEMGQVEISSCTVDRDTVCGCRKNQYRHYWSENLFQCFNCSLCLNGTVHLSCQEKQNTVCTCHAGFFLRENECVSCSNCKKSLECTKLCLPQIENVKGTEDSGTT

B1: A106H (designed binder)
chain: MTLQELLREEALRRAEAEAFRYALELLAEKFPEQKEYLLDLAEEIESQIRSLSGVDVEDVRKFLDKEWAWVKELLAEHPAELAEVEAARAARLAELRAEVEAKVAH
B2: L82Y (designed binder)
chain: MTLQELLREEALRRAEAEAFRYALELLAEKFPEQKEYLLDLAEEIESQIRSLSGVDVEDVRKFLDKEWAWVKELLAEHPAEYAEVEAARAARLAELRAEVEAKVAA
B3: W68F (designed binder)
chain: MTLQELLREEALRRAEAEAFRYALELLAEKFPEQKEYLLDLAEEIESQIRSLSGVDVEDVRKFLDKEFAWVKELLAEHPAELAEVEAARAARLAELRAEVEAKVAA
B4: R97D (designed binder)
chain: MTLQELLREEALRRAEAEAFRYALELLAEKFPEQKEYLLDLAEEIESQIRSLSGVDVEDVRKFLDKEWAWVKELLAEHPAELAEVEAARAARLAELDAEVEAKVAA
B5: A42P (designed binder)
chain: MTLQELLREEALRRAEAEAFRYALELLAEKFPEQKEYLLDLPEEIESQIRSLSGVDVEDVRKFLDKEWAWVKELLAEHPAELAEVEAARAARLAELRAEVEAKVAA
B6: V60I (designed binder)
chain: MTLQELLREEALRRAEAEAFRYALELLAEKFPEQKEYLLDLAEEIESQIRSLSGVDVEDIRKFLDKEWAWVKELLAEHPAELAEVEAARAARLAELRAEVEAKVAA
B7: Y37D (designed binder)
chain: MTLQELLREEALRRAEAEAFRYALELLAEKFPEQKEDLLDLAEEIESQIRSLSGVDVEDVRKFLDKEWAWVKELLAEHPAELAEVEAARAARLAELRAEVEAKVAA
B8: E10N (designed binder)
chain: MTLQELLRENALRRAEAEAFRYALELLAEKFPEQKEYLLDLAEEIESQIRSLSGVDVEDVRKFLDKEWAWVKELLAEHPAELAEVEAARAARLAELRAEVEAKVAA
B9: A42I (designed binder)
chain: MTLQELLREEALRRAEAEAFRYALELLAEKFPEQKEYLLDLIEEIESQIRSLSGVDVEDVRKFLDKEWAWVKELLAEHPAELAEVEAARAARLAELRAEVEAKVAA
B10: F63Y (designed binder)
chain: MTLQELLREEALRRAEAEAFRYALELLAEKFPEQKEYLLDLAEEIESQIRSLSGVDVEDVRKYLDKEWAWVKELLAEHPAELAEVEAARAARLAELRAEVEAKVAA
B11: A28C (designed binder)
chain: MTLQELLREEALRRAEAEAFRYALELLCEKFPEQKEYLLDLAEEIESQIRSLSGVDVEDVRKFLDKEWAWVKELLAEHPAELAEVEAARAARLAELRAEVEAKVAA
B12: V85E (designed binder)
chain: MTLQELLREEALRRAEAEAFRYALELLAEKFPEQKEYLLDLAEEIESQIRSLSGVDVEDVRKFLDKEWAWVKELLAEHPAELAEEEAARAARLAELRAEVEAKVAA
B13: K103A (designed binder)
chain: MTLQELLREEALRRAEAEAFRYALELLAEKFPEQKEYLLDLAEEIESQIRSLSGVDVEDVRKFLDKEWAWVKELLAEHPAELAEVEAARAARLAELRAEVEAAVAA
B14: E99Q (designed binder)
chain: MTLQELLREEALRRAEAEAFRYALELLAEKFPEQKEYLLDLAEEIESQIRSLSGVDVEDVRKFLDKEWAWVKELLAEHPAELAEVEAARAARLAELRAQVEAKVAA
B15: A28S (designed binder)
chain: MTLQELLREEALRRAEAEAFRYALELLSEKFPEQKEYLLDLAEEIESQIRSLSGVDVEDVRKFLDKEWAWVKELLAEHPAELAEVEAARAARLAELRAEVEAKVAA
B16: A87G (designed binder)
chain: MTLQELLREEALRRAEAEAFRYALELLAEKFPEQKEYLLDLAEEIESQIRSLSGVDVEDVRKFLDKEWAWVKELLAEHPAELAEVEGARAARLAELRAEVEAKVAA
B17: A23S (designed binder)
chain: MTLQELLREEALRRAEAEAFRYSLELLAEKFPEQKEYLLDLAEEIESQIRSLSGVDVEDVRKFLDKEWAWVKELLAEHPAELAEVEAARAARLAELRAEVEAKVAA
B18: F31S (designed binder)
chain: MTLQELLREEALRRAEAEAFRYALELLAEKSPEQKEYLLDLAEEIESQIRSLSGVDVEDVRKFLDKEWAWVKELLAEHPAELAEVEAARAARLAELRAEVEAKVAA
B19: E99M (designed binder)
chain: MTLQELLREEALRRAEAEAFRYALELLAEKFPEQKEYLLDLAEEIESQIRSLSGVDVEDVRKFLDKEWAWVKELLAEHPAELAEVEAARAARLAELRAMVEAKVAA
B20: R14N (designed binder)
chain: MTLQELLREEALRNAEAEAFRYALELLAEKFPEQKEYLLDLAEEIESQIRSLSGVDVEDVRKFLDKEWAWVKELLAEHPAELAEVEAARAARLAELRAEVEAKVAA
B21: L96A (designed binder)
chain: MTLQELLREEALRRAEAEAFRYALELLAEKFPEQKEYLLDLAEEIESQIRSLSGVDVEDVRKFLDKEWAWVKELLAEHPAELAEVEAARAARLAEARAEVEAKVAA
B22: E67T (designed binder)
chain: MTLQELLREEALRRAEAEAFRYALELLAEKFPEQKEYLLDLAEEIESQIRSLSGVDVEDVRKFLDKTWAWVKELLAEHPAELAEVEAARAARLAELRAEVEAKVAA
B23: P79A (designed binder)
chain: MTLQELLREEALRRAEAEAFRYALELLAEKFPEQKEYLLDLAEEIESQIRSLSGVDVEDVRKFLDKEWAWVKELLAEHAAELAEVEAARAARLAELRAEVEAKVAA
B24: A88Q (designed binder)
chain: MTLQELLREEALRRAEAEAFRYALELLAEKFPEQKEYLLDLAEEIESQIRSLSGVDVEDVRKFLDKEWAWVKELLAEHPAELAEVEAQRAARLAELRAEVEAKVAA
B25: L24I (designed binder)
chain: MTLQELLREEALRRAEAEAFRYAIELLAEKFPEQKEYLLDLAEEIESQIRSLSGVDVEDVRKFLDKEWAWVKELLAEHPAELAEVEAARAARLAELRAEVEAKVAA
B26: E5C (designed binder)
chain: MTLQCLLREEALRRAEAEAFRYALELLAEKFPEQKEYLLDLAEEIESQIRSLSGVDVEDVRKFLDKEWAWVKELLAEHPAELAEVEAARAARLAELRAEVEAKVAA
B27: V57F (designed binder)
chain: MTLQELLREEALRRAEAEAFRYALELLAEKFPEQKEYLLDLAEEIESQIRSLSGVDFEDVRKFLDKEWAWVKELLAEHPAELAEVEAARAARLAELRAEVEAKVAA
B28: E29S (designed binder)
chain: MTLQELLREEALRRAEAEAFRYALELLASKFPEQKEYLLDLAEEIESQIRSLSGVDVEDVRKFLDKEWAWVKELLAEHPAELAEVEAARAARLAELRAEVEAKVAA
B29: E101Y (designed binder)
chain: MTLQELLREEALRRAEAEAFRYALELLAEKFPEQKEYLLDLAEEIESQIRSLSGVDVEDVRKFLDKEWAWVKELLAEHPAELAEVEAARAARLAELRAEVYAKVAA
B30: A69N (designed binder)
chain: MTLQELLREEALRRAEAEAFRYALELLAEKFPEQKEYLLDLAEEIESQIRSLSGVDVEDVRKFLDKEWNWVKELLAEHPAELAEVEAARAARLAELRAEVEAKVAA
B31: A69C (designed binder)
chain: MTLQELLREEALRRAEAEAFRYALELLAEKFPEQKEYLLDLAEEIESQIRSLSGVDVEDVRKFLDKEWCWVKELLAEHPAELAEVEAARAARLAELRAEVEAKVAA
B32: D59R (designed binder)
chain: MTLQELLREEALRRAEAEAFRYALELLAEKFPEQKEYLLDLAEEIESQIRSLSGVDVERVRKFLDKEWAWVKELLAEHPAELAEVEAARAARLAELRAEVEAKVAA
B33: A105I (designed binder)
chain: MTLQELLREEALRRAEAEAFRYALELLAEKFPEQKEYLLDLAEEIESQIRSLSGVDVEDVRKFLDKEWAWVKELLAEHPAELAEVEAARAARLAELRAEVEAKVIA
B34: E25R (designed binder)
chain: MTLQELLREEALRRAEAEAFRYALRLLAEKFPEQKEYLLDLAEEIESQIRSLSGVDVEDVRKFLDKEWAWVKELLAEHPAELAEVEAARAARLAELRAEVEAKVAA

The test concerns the target T1, TNFR1. Briefly: yeast display SC50.
On to B1, for which the “apparent Kd (screen)” value came out at 0.718 nM.

As for B2, the “apparent Kd (screen)” value is 0.718 nM.

In the case of B3, the “apparent Kd (screen)” value is 0.539 nM.

B4: the “apparent Kd (screen)” value was 0.593 nM.

For B5, the “apparent Kd (screen)” value is 0.49 nM.

For the molecule B6, the “apparent Kd (screen)” value worked out at 0.653 nM.

For B7, the “apparent Kd (screen)” value amounted to 16.7 nM.

In the case of B8, the “apparent Kd (screen)” value was 7.78 nM.

As to B9, the “apparent Kd (screen)” value was found to be 0.593 nM.

For the molecule B10, the “apparent Kd (screen)” value is 12.5 nM.

Regarding B11, the “apparent Kd (screen)” value was found to be 2.25 nM.

On to B12, for which the “apparent Kd (screen)” value is 1.05 nM.

On to B13, for which the “apparent Kd (screen)” value came out at 0.718 nM.

Turning to B14, the “apparent Kd (screen)” value was found to be 0.539 nM.

In the case of B15, the “apparent Kd (screen)” value worked out at 0.79 nM.

As to B16, the “apparent Kd (screen)” value stood at 0.869 nM.

Take B17: the “apparent Kd (screen)” value was 0.446 nM.

For the molecule B18, the “apparent Kd (screen)” value was found to be 0.956 nM.

With B19, the “apparent Kd (screen)” value was 0.956 nM.

As for B20, the “apparent Kd (screen)” value is 0.593 nM.

On to B21, for which the “apparent Kd (screen)” value was 2.73 nM.

In the case of B22, the “apparent Kd (screen)” value was 1.86 nM.

For the molecule B23, the “apparent Kd (screen)” value was 0.718 nM.

Take B24: the “apparent Kd (screen)” value was determined as 0.49 nM.

Take B25: the “apparent Kd (screen)” value was 0.653 nM.

Consider B26, for which the “apparent Kd (screen)” value is 0.79 nM.

Consider B27, for which the “apparent Kd (screen)” value stood at 0.718 nM.

As to B28, the “apparent Kd (screen)” value turned out to be 0.539 nM.

With B29, the “apparent Kd (screen)” value amounted to 0.446 nM.

Regarding B30, the “apparent Kd (screen)” value was 0.653 nM.

Take B31: the “apparent Kd (screen)” value is 0.405 nM.

Take B32: the “apparent Kd (screen)” value turned out to be 0.539 nM.

With B33, the “apparent Kd (screen)” value was 0.869 nM.

For B34, the “apparent Kd (screen)” value is 0.49 nM.
